In patent publication US20260258115A1 (MAPP BIOPHARMACEUTICAL, published 2026):

How the values were obtained:
Experiment in all cases: BLI, IgG
[1] = target: RSV prefusion F (preF), subtype B (respiratory syncytial virus, subtype B)
[2] = target: T1, RSV postfusion F (postF), subtype A (respiratory syncytial virus, subtype A, UniProt P03420 26-513)
T1 construct: also called F ΔFP; Postfusion subtype A

[3] = target: RSV prefusion F (preF), subtype A (respiratory syncytial virus, subtype A, UniProt P03420 26-513)
[4] = target: T2, RSV postfusion F (postF), subtype B (respiratory syncytial virus, subtype B)
T2 construct: also called F ΔFP; Postfusion subtype B

| Binder | Kd [1] [nM] | Kd [2] [nM] | Kd [3] [nM] | Kd [4] [nM] | binding result [3] | binding result [2] |
| --- | --- | --- | --- | --- | --- | --- |
| ADI-14418 (antibody, V domains shown, also called Ab 84) VH: QVQLVQSGAEVKKPGSSVKVSCKASGGTFTNYNINWVRQAPGQGLQWMGRISPTFAIANYAQKFQGRVTITADKSTSTAYMELSSLRSEDTAVYYCARAPHSGYDLALDYWGQGTLVTVSS VL: DIQMTQSPSTLSASVGDRVTITCRASQSISSWLAWYQQKPGKAPKLLIYEASSLQSGVPSRFSGSGSGTEFTLTITSLQPDDFATYYCQQYNVYPWTFGQGTKVDIK | 1.58 | 0.441 | 1.25 | 0.258 | – | – |
| ADI-14595 (antibody, V domains shown) VH: EVQLLESGGGLVQPGGSLRLSCAASGFTFSIYSMNWVRQAPGKGLEWISYISRSGSTIFYADSVKGRFTISRDDAKNSLFLQMTSLRDADTAVYYCARVDCSNNKCYDYWGQGTLVTVSS VL: DIQLTQSPATLSLSPGERATLSCRASQSISSFLAWYQQKPGQAPRLLIYDASKRATGTPARFSGGGSGRDFTLTISSLEPEDFAVYYCQQRSSWPLYTFGQGTKVEIK | 16 | 1.3 | 2.19 | 14.4 | – | – |
| ADI-14404 (antibody, V domains shown, also called Ab 70) VH: EVQLVESGGGLVQPGGSLRLSCAASGFTFSNFEMNWVRQAPGKGLEWVSYISSSGRIIYYADSVKGRFTISRDNARNSLYVQMNSLRVEDTAVYYCARAKAAAGHDLWGQGTLVTVSS VL: EIVLTQSPSTLSASVGDRVTITCRASQSISPWLAWYQQKPGKAPKLLIYRASSLESGVPSRFSGSGSGTEFTLTISSLQPDDFATYYCQHYNSYLYTFGQGTKVEIK | – | 0.627 | – | 0.498 | no binding | – |
| ADI-21040 (antibody, V domains shown) VH: EVQLLESGPGLVKPSGTPSLTCAVSGVSITNSNNWWTWVRQPPGKGLEWIGEIYSSGSTNYSPSLKSRVTISLDKSKNQFSLKLSSVTAADTAVYYCARVLGYYGSGGGHLHSWGPGTLVTVSS VL: SYELTQPPSASGTPGQRVTISCSGSSSNIGAGYDVHWYQQLPGTAPKLLISVNSNRPSGVPDRFSGSKSGTSASLAITGLQAEDEANYYCQSYDNSLSGYVVFGGGTKLTVL | – | 0.777 | – | 1.03 | no binding | – |
| ADI-14594 (antibody, V domains shown) VH: QVQLVQSGAEVKKPGASVKLSCKASGYTFTTYTINWVRQAPGQGLEWMGWISGYNGNTDYAQKLQGRFTMTTDTSTNTAYMELRSLTSDDTAVYYCAKGGGGSESYFDYWGQGTLVTVSS VL: SYELTQPPSVSVAPGKTARISCGGNNIGSKSVHWYQQKPGQAPVLVIYYDRDRPSGIPERFSGSNSGNTATLTISRVEAGDEADYYCQLWDRSSDHPYVFGTGTKVTVL | 18.2 | 0.257 | – | 0.214 | no binding | – |
| ADI-14606 (antibody, V domains shown) VH: QVQLVQSGGGLVQPGGSLRLSCAASGFTVSSNYMGWVRQAPGKGLEWVSVIYTGGSTYYADSVKGRFTISRDNFKNTLYLQMNSLRAEDTALYYCARDLYSSGWFGYWGQGTLVTVSS VL: DIRLTQSPATLSVSPGERATLSCRASQSVSINLGWFQQKPGQSPRLLIYGTSTRATGIPARFSGSGSGTEFTLTISSLQSEDFAVYYCHQYNNWPYTFGQGTKVEIK | – | 1.28 | – | 0.659 | no binding | – |
| ADI-14405 (antibody, V domains shown, also called Ab 71) VH: QVQLVQSGTEVKKPGASVKVSCKASGYTFTNYDISWVRQAPGQGLEWMGWISGSTGNTIYAQNLQGRLTMTTDTSTSTAYMELRSLRSDDTAIYYCARDNVGYASGNYFDYWGQGTLVTVSS VL: SYVLTQPPSVSVAPGKTARIPCGGNNIGSKSVHWYQQRPGQAPVLVIYYDSVRPSGIPERFSGSNSGNTATLTISTVEAGDEADFYCQVWDSSRDHEVFGGGTKLTVL | 0.227 | 11.7 | 0.142 | 38 | – | – |
| ADI-14425 (antibody, V domains shown, also called Ab 91) VH: QVQLQESGPGLVKPSETLSLTCTVSGGSVRSGSYYWSWIRQPPGKALEWIGYIYYSGSTNYNPALESRVTISVDTSKNQFSLMLSSVTAADTAVYYCARSAEGLARLYYFDHWGQGTLVTVSS VL: QSVLIQPASVSGSPGQSITISCTGTSSDVGGYNYVSWYQQHPGKAPKLMIHDVSNRPSGVSNRFSGSKSGNTASLTISGLQAEDEADYYCSTYRSSNTLVVFGGGTKLTVL | 20.3 | 0.742 | 48.1 | 9.34 | – | – |
| ADI-14573 (antibody, V domains shown) VH: QVQLVQSGAEVKKPGASVKVSCKASGYTFTTYGISWVRQAPGQGLEWMGWISTYKTYTNYAQKFQGRVTMTTDTSTSTAYMELRSLRSDDTAVYYCAKVAGGSGSYGDYWGQGTLVTVSS VL: QPVLTQPPSVSVAPGKTARITCGGNNIGSKSVHWYLQKPGQAPVLVIYYDSDRPSGIPERFSGSNSGNTATLTISRVEAGDEADFFCQVWDSSSDHWVFGGGTKVTVL | 21 | 0.373 | – | 3.55 | no binding | – |
| ADI-21053 (antibody, V domains shown) VH: QVQLQESGPGLVKPSQTLSLTCTVSGVSISNSSGGYYWSWIRQHPGKGLEWIGYIYYSGSTYYNPSSGSTYYNPSLKSRVTVSVDTSKNQFSLKLTSVTAADTAVYYCARDIRGPHKHSLYNWFHPWGQGTLVTVSS VL: not shown | – | 6.37 | 71 | 118 | – | – |
| ADI-14589 (antibody, V domains shown) VH: QITLKESGPVLVKPSETLTLTCTVSGFSLSNAKMGVSWIRQPPGKALEWLAHIFSNDEKSYNTSLKNRLTISKDTSKSQVVLTMTNMDTVDTATYYCARINYYDSSGYYLANFDYWGQGTLVTVSS VL: NIRLTQSPSSLSASVGDRVTITCRASQRIASYLNWYQQKPGHAPKLLIHAASSLQSGVPSRFSGSGSGTDFTLTINSLLPEDFATYYCQQSYSSPPHSSPPLTFGGGTKVEIK | 28.2 | 0.596 | 6.48 | 15.4 | – | – |
| ADI-14417 (antibody, V domains shown, also called Ab 83) VH: EVQLVESGGGLVKPGGSLRLSCAASGFSFSSYSMHWVRQAPGKGLEWVSSISGSSTYIYHADSVKGRFTISRDNAERSLHLQMNSLRAEDTAVYYCARDPYSSGWLDSWGQGTLVTVSS VL: not shown | – | 1.63 | – | 3.99 | no binding | – |
| ADI-14416 (antibody, V domains shown, also called Ab 82) VH: QVQLVQSGAEVKKPGESLKISCKGSGDTFSRNWIGWVRQMPGKGLEWMGIIWPGDSDTRYRQFFQGQQGQVIISVDKSISTAYLQWSSLKASDTATYYCATSPYGLGSYYEHWGQGTLVTVSS VL: NFMLTQPHSLSDSPGKTVVISCTRSSGSIASNYVQWYQQRPGSAPTTVIYEDNQRPSGVPDRFSGSIDSSSNSASLTISGLKTEDEADYYCQSYDSSNPYVFGTGTKVTVL | 0.369 | 0.182 | 2.39 | 0.106 | – | – |
| ADI-14590 (antibody, V domains shown) VH: EVQLVESGAEVKKPGESLKISCKGSGYSFATYWIGWVRQMPGKGLEWMGIIYPGDSDTRYSPSFQGQVTISADKSISTAYLQWSSLKASDTAIYYCARAKLPVAGLYYFDYWGQGTLVTVSS VL: DIQLTQSPSSLSASVGDRVTITCRASQGISSTLAWYQQKPGKAPKLLIYDASSLESGVPSRFSGSGSGTDFTLTISSLHPEDFATYYCQQFNTYPTFGGGTKVEIK | 5.99 | 2.68 | 13.2 | 0.967 | – | – |
| ADI-14421 (antibody, V domains shown, also called Ab 87) VH: QVQLVQSGAEVKKPGESLKISCKGSGYNSSINWIGYWIGWVRQMPGKGLEWMGIINPGDSDTRYSPSFQGQVTISVDKSISTAYLQWGSLKASDTAMYYCARRAYRSGWHFDLWGRGTLVTVSS VL: EIVMTQSPATLSVSPGERATLTCRASQSVSSNLAWYQQKPGQAPRLLIYGASTRATGIPARFSGSGSGTQFTLTISSLQSEDFAVYYCQHYNNWPPYTFGQGTKVEIK | 2.82 | 1.07 | – | 0.74 | no binding | – |
| ADI-14393 (antibody, V domains shown, also called Ab 60) VH: QVQLVESGGGLVKPGGSLRLSCAASGFSFTGFYMNWVRQAPGKGLEWVSSISSSSTYKNYADSLQGRFTISRDNARSSLYLQMNSLRAEDTAVYYCARTRTEYTYGYYHDFWGQGTLVTVSS VL: QPVLTQPPSVSGAPGQRVTISCTGSSSNIGAGYDVHWYQQVPGTAPKLLIYNNNNRPSGVPDRFSGSKSGTSASLAITGLQAEDEADYYCQSYDSRLSGVFGGGTKLTVL | 0.474 | – | 0.311 | 11.7 | – | no binding |
| ADI-14592 (antibody, V domains shown) VH: QVQLVQSGAEVKKPGESLKISCKGSGYTFTNYWIGWVRQMPGKGLEWMGIIYPDDSDTRYSPSFQGQVTISVDKSINTAYLQWSSLRASDTAIYYCACSNWPHYFDSWGQGTLVTVSS VL: NFMLTQPHSVSESPGKTVTISCTRSSGNIAGNYVQWYQQRPGSAPTTVIYEDNQRPSGVPDRFSGSIDSSSNSASLTISGLKTEDEAVYYCQSYHPGNWVFGGGTKLTVL | 0.301 | 0.136 | 2.4 | 0.0932 | – | – |
| ADI-14593 (antibody, V domains shown) VH: QVQLVQSGAEVKKPGESLKISCKGSGYSFSSYWVAWVRQMPGKGLEWMGIIYPADSDTRYSPSFQGQVTISADKSDSTAYLQWGSLKASDTAMYYCARSLYGSGDYFDYWGQGTLVTVSS VL: NFMLTQPHSVSESPGRTVIISCTRSSGSIATNYVQWYQQRPGSAPTTVIYEDNQRPSGVPDRFSGSIDSSSNSASLTISGLKTEDEADYYCQSYGSGDVVFGGGTKVTVL | 0.358 | 0.161 | 2.33 | 0.108 | – | – |
| ADI-14406 (antibody, V domains shown, also called Ab 72) VH: QVQLVQSGAEVKKPGESLKISCKGSGYKFTNYWIAWVRQMPGKGLEWLGVIYPGASDITYSPSFQGQVTISADKSISTAYLQWSSLKASDTAIYYCARQGSITAMSYWGQGTMVTVSS VL: not shown | 0.906 | 0.339 | 6.85 | 0.473 | – | – |
